According to US20220153859A1 (ANOKION, published 2022):
Changes are numbered by the printed parent chain.

T1: Human glycophorin A extract (hGPA extract) (human, UniProt P02724 20-150)
T1 construct: also called human GPA extracted from red blood cells (extract)
T1 sequence (looked up): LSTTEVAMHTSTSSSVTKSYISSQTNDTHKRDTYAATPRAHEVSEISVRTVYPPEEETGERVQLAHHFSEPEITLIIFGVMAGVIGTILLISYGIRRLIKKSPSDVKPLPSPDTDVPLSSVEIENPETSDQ

T2: Human glycophorin A on human erythrocytes (human, UniProt P02724 20-150)
T2 construct: whole, on cells; Target of the flow cytometry assays on human erythrocytes; also called human GPA; hGPA
T2 sequence (looked up): T1 sequence (looked up)

B1: Humanized 10F7-M10 Fab (non-affinity matured) (Fab)
heavy: EVQLLESGGGLVQPGKSLRLSCKASGYTFNSYFMHWVRQAPGKGLEWVGMIRPNGGTTDYNEKFKNRFTLSVDKSKNTAYLQMNSLRAEDTAVYYCARWEGSYYALDYWGQGTASTKGPSVFPLAPSSKSTSGGTAALGCLVKDYFPEPVTVSWNSGALTSGVHTFPAVLQSSGLYSLSSVVTVPSSSLGTQTYICNVNHKPSNTKVDKKVEPKSC
light: EITLTQSPATLSLSPGERATLSCRASSNVKYMYWYQQKPGQAPRLWIYYTSNLASGIPDRFSGSGSGTDYTLTISRLEPEDFAVYYCQQFTSSPYTFGQGTKVEVKRTVAAPSVFIFPPSDEQLKSGTASVVCLLNNFYPREAKVQWKVDNALQSGNSQESVTEQDSKDSTYSLSSTLTLSKADYEKHKVYACEVTHQGLSSPVTKSFNRGEC
notes: Soluble Fab expressed in HEK cells; also called clone m10; wild-type 10F7-M10
B2: Humanized & affinity matured 10F7-M10 Fab clone L1+2-17 (Fab)
heavy: B1 heavy
light: B1 light with K30Y, Y31F, Y48H, Y49H, N52D
notes: Soluble Fab from HEK cells; all domains other than VL are the same as wild-type 10F7-M10; also called YF-HH-D
B3: Humanized & affinity matured 10F7-M10 Fab clone L1+2-35 (Fab)
heavy: B1 heavy
light: B1 light with K30Y, Y31W, Y48H, Y49H, N52E
notes: Soluble Fab from HEK cells; all domains other than VL are the same as wild-type 10F7-M10; also called YW-HH-E
B4: Humanized & affinity matured 10F7-M10 Fab clone L1+2-21 (Fab)
heavy: B1 heavy
light: B1 light with K30Y, Y31F, Y48H, Y49H, N52V
notes: Soluble Fab from HEK cells; all domains other than VL are the same as wild-type 10F7-M10; also called YF-HH-V
B5: Humanized & affinity matured 10F7-M10 Fab clone L1+2-28 (Fab)
heavy: B1 heavy
light: B1 light with K30Y, Y31W, Y48H, Y49H, N52D
notes: Soluble Fab from HEK cells; all domains other than VL are the same as wild-type 10F7-M10; also called YW-HH-D
B6: Humanized & affinity matured 10F7-M10 Fab clone L1+2-15 (Fab)
heavy: B1 heavy
light: B1 light with K30F, Y48H, Y49H, N52W
notes: Soluble Fab from HEK cells; all domains other than VL are the same as wild-type 10F7-M10; also called FY-HH-W
B7: Humanized & affinity matured 10F7-M10 Fab clone L1+2-24 (Fab)
heavy: B1 heavy
light: B1 light with K30Q, Y31Q, Y48H, Y49H, N52I
notes: Soluble Fab from HEK cells; all domains other than VL are the same as wild-type 10F7-M10; also called QQ-HH-I
B8: Humanized & affinity matured 10F7-M10 Fab clone L1+2-1 (Fab)
heavy: B1 heavy
light: B1 light with K30F, Y31F, Y48H, Y49H
notes: Soluble Fab from HEK cells; all domains other than VL are the same as wild-type 10F7-M10; also called FF-HH-N
B9: Humanized & affinity matured 10F7-M10 Fab clone L1+2-14 (Fab)
heavy: B1 heavy
light: B1 light with K30H, Y31Q, Y48H, Y49H, N52K
notes: Soluble Fab from HEK cells; all domains other than VL are the same as wild-type 10F7-M10; also called HQ-HH-K
B10: Humanized & affinity matured 10F7-M10 Fab clone L1+2-10 (Fab)
heavy: B1 heavy
light: B1 light with K30W, Y31F, Y48H, Y49H, N52E
notes: Soluble Fab from HEK cells; all domains other than VL are the same as wild-type 10F7-M10; also called WF-HH-E
B11: Humanized & affinity matured 10F7-M10 Fab clone L1+2-39 (Fab)
heavy: B1 heavy
light: B1 light with K30F, Y31F, Y48H, Y49H, N52V
notes: Soluble Fab from HEK cells; all domains other than VL are the same as wild-type 10F7-M10; also called FF-HH-V
B12: Humanized & affinity matured 10F7-M10 Fab clone L1+2-8 (Fab)
heavy: B1 heavy
light: B1 light with K30I, Y31D, Y48H, Y49H, N52Y
notes: Soluble Fab from HEK cells; all domains other than VL are the same as wild-type 10F7-M10; also called ID-HH-Y
B13: Humanized & affinity matured 10F7-M10 Fab clone L1+2-5 (Fab)
heavy: B1 heavy
light: B1 light with K30Y, Y31N, Y48H, Y49R
notes: Soluble Fab from HEK cells; all domains other than VL are the same as wild-type 10F7-M10; also called YN-HR-N
B14: Humanized & affinity matured 10F7-M10 Fab clone L1+2-25 (Fab)
heavy: B1 heavy
light: B1 light with K30A, Y31W, Y49H, N52K
notes: also called L1 + 2-8-25; AW-YH-K
B15: CDRL2_18 (Fab, V domains shown)
VH: QVQLVQSGAEVKKPGASVKVSCTASGFNIKDTYMLWVRQAPGQGLEWMGRIDPANANSRYDPKFQGRVTITADTSTNTAYMELSSLRSEDTAVYYCVDGYMFAYWGQGTLVTVSS
VL: DVVMTQTPLSLSVTPGQPASISCKSSQSLLYSNGKTYLHWLLQKPGQSPQRLIYLLNRLHSGVPDRFSGSGSGTDFTLKISRVEAEDVGVYYCVQGTHFPLTFGQGTKLEIKR
notes: copies: 1 + 1
B16: CDRH1_1 (Fab, V domains shown)
VH: B15 VH with K30R, D31A, M34I
VL: B15 VL with L56V, N57S, R58K, H60D
notes: copies: 1 + 1
B17: CDRL2_33 (Fab, V domains shown)
VH: B15 VH
VL: B15 VL with L56N, N57S
notes: copies: 1 + 1
B18: CDRH1_24 (Fab, V domains shown)
VH: B15 VH with D31T, T32V, M34I
VL: B15 VL with L56V, N57S, R58K, H60D
notes: copies: 1 + 1
B19: CDRL2_32 (Fab, V domains shown)
VH: B15 VH
VL: B15 VL with H60S
notes: copies: 1 + 1
B20: CDRL2_49 (Fab, V domains shown)
VH: B15 VH
VL: B15 VL with L59M, H60S
notes: column Notes: 'ELISA Hit'; copies: 1 + 1
B21: CDRL2_37 (Fab, V domains shown)
VH: B15 VH
VL: B15 VL with L56S
notes: copies: 1 + 1
B22: CDRH1_14 (Fab, V domains shown)
VH: B15 VH with K30R, D31N, T32I, M34L
VL: B15 VL with L56V, N57S, R58K, H60D
notes: column Notes: 'Duplicate ELISA hit'; copies: 1 + 1
B23: CDRH1_15 (Fab, V domains shown)
VH: B15 VH with K30R, D31K, M34I
VL: B15 VL with L56V, N57S, R58K, H60D
notes: copies: 1 + 1
B24: CDRH1_25 (Fab, V domains shown)
VH: B15 VH with D31H, T32V, M34I
VL: B15 VL with L56V, N57S, R58K, H60D
notes: copies: 1 + 1

molecular target: T1, Human glycophorin A extract (hGPA …); assay: Octet BLI, hGPA extract, apparent

Row | koff [s⁻¹] | kon [M⁻¹ s⁻¹] | Binder
1 | 0.0067 | 47000 | B1
2 | 0.00093 | 160000 | B2
3 | 0.0014 | 81000 | B3
4 | 0.0013 | 260000 | B4
5 | 0.0021 | 610000 | B5
6 | 0.0016 | 220000 | B6
7 | 0.008 | 380000 | B7
8 | 0.0018 | 310000 | B8
9 | 0.00057 | 17000 | B9
10 | 0.0014 | 220000 | B10
11 | 0.0012 | 250000 | B11
12 | 0.0022 | 200000 | B12

molecular target: T1, Human glycophorin A extract (hGPA …); assay: Octet BLI, hGPA extract, apparent; biphasic off-rate to fit data

Row | koff [s⁻¹] | kon [M⁻¹ s⁻¹] | Binder
13 | 0.0081 | 790000 | B13

molecular target: T1, Human glycophorin A extract (hGPA …); assay: Biacore SPR, hGPA extract, apparent

Row | koff [s⁻¹] | kon [M⁻¹ s⁻¹] | Binder
14 | 0.00667 | 47300 | B1
15 | 0.000931 | 156000 | B2
16 | 0.00136 | 81300 | B3
17 | 0.00132 | 257000 | B4
18 | 0.00214 | 614000 | B5
19 | 0.00155 | 222000 | B6
20 | 0.00802 | 382000 | B7
21 | 0.00185 | 311000 | B8
22 | 0.000568 | 17300 | B9
23 | 0.00143 | 222000 | B10
24 | 0.00121 | 250000 | B11
25 | 0.00218 | 198000 | B12

molecular target: T1, Human glycophorin A extract (hGPA …); assay: Biacore SPR, hGPA extract, apparent KD; biphasic off-rate to fit data

Row | Kd [nM] | Binder
26 | 10.2 | B13

molecular target: T2, Human glycophorin A on human …; assay: flow cytometry (FACS) on human erythrocytes, soluble Fab

Row | EC50 [nM] | Binder
27 | 73 | B1
28 | 100 | B14
29 | 3.4 | B2
30 | 4.6 | B3
31 | 3.7 | B4
32 | 3.7 | B5
33 | 3.4 | B6
34 | 23 | B7
35 | 3.3 | B8
36 | 6.4 | B9
37 | 8.8 | B13
38 | 3.3 | B10
39 | 2.7 | B11
40 | 14 | B12

molecular target: T1, Human glycophorin A extract (hGPA …); assay: Octet BLI, hGPA extract, apparent KD; biphasic off-rate to fit data

Row | Kd [nM] | Binder
41 | 10 | B13

molecular target: T2, Human glycophorin A on human …; assay: FACS (flow cytometry) on human erythrocytes (hRBCs)
Outline: (§1)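 Flow cytometry was used to measure Fab binding to human or cynomolgus erythrocytes, and this binding is reported as EC50. The Fabs had been picked through next-generation-sequencing enrichment and phage ELISA screens, then expressed in soluble form in HEK cells, with the top-ranking ones purified on CH1 resin.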

Row | EC50 [nM] | Binder
42 | 2.5 | B15
43 | 4.3 | B16
44 | 4.4 | B17
45 | 3.1 | B18
46 | 4.2 | B19
47 | 4.4 | B20
48 | 2.8 | B21
49 | 4.2 | B22
50 | 3.1 | B23
51 | 3.1 | B24

molecular target: T3, Cynomolgus glycophorin A on cynomolgus erythrocytes (cynomolgus monkey); assay: FACS (flow cytometry) on cynomolgus erythrocytes (cRBCs)
T3 construct: whole, on cells; also called cyno GPA; cyno erythrocytes
Outline: as §1

Row | EC50 [nM] | Binder
52 | 8.3 | B15
53 | 11.6 | B16
54 | 8.3 | B17
55 | 10.6 | B18
56 | 11.1 | B19
57 | 13 | B20
58 | 10.1 | B21
59 | 10.8 | B22
60 | 10.6 | B23
61 | 10.2 | B24

molecular target: T1, Human glycophorin A extract (hGPA …); assay: Biacore SPR, hGPA extract, apparent; biphasic off-rate to fit data

Row | koff [s⁻¹] | kon [M⁻¹ s⁻¹] | Binder
62 | 0.00808 | 795000 | B13

molecular target: T1, Human glycophorin A extract (hGPA …); assay: Octet BLI, hGPA extract, apparent KD

Row | Kd [nM] | Binder
63 | 140 | B1
64 | 6 | B2
65 | 17 | B3
66 | 5.1 | B4
67 | 3.5 | B5
68 | 7 | B6
69 | 21 | B7
70 | 5.9 | B8
71 | 33 | B9
72 | 6.4 | B10
73 | 4.8 | B11
74 | 11 | B12

molecular target: T1, Human glycophorin A extract (hGPA …); assay: Biacore SPR, hGPA extract, apparent KD

Row | Kd [nM] | Binder
75 | 141 | B1
76 | 5.97 | B2
77 | 16.7 | B3
78 | 5.12 | B4
79 | 3.49 | B5
80 | 7 | B6
81 | 21 | B7
82 | 5.95 | B8
83 | 32.8 | B9
84 | 6.43 | B10
85 | 4.82 | B11
86 | 11 | B12
